B1: DCAF4 (parent)
chain: TTKCVRQYEGHVNEYAYLPLHVHE
B2: ZNF449 (parent)
chain: RIHSGEEPHKCPECGKRFLRSSDL

Variants of: B1
Test: protein stability index of a GFP-peptide fusion (GPS, HEK-293T) (PSI 1-6); higher = more stable
Conditions: c terminus: a fixed tail appended
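Further: lentivirally expressed fusions sorted by FACS into six bins by GFP to DsRed ratio, PSI derived from sequencing read proportions per bin multiplied by bin number.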

Protein stability index of substitutions, site by site:
V5: Q 2.55 | P 2.95 | M 2.18 | N 2.27 | H 2.19 | S 1.82 | W 2.46 | G 2.31 | T 2.69 | I 2.17

Variants of: B2
Test: as above
Conditions: c terminus: a fixed tail appended

Protein stability index: each site, then its substitutions
K16: M 2.61 | L 2.78 | I 2.93 | T 3.68 | G 3.13 | S 3.68 | Y 3.77 | Q 3.66 | F 2.55 | P 3.82 | V 2.37 | R 3.9 | N 3.58 | W 2.69 | H 3.19
L24: G 3.82 | Q 4.91 | E 4.42 | H 3.63 | P 4.12 | M 3.41 | S 3.88 | I 2.5 | N 3.89 | D 4.61 | C 3.63 | A 3.92 | R 2.29 | W 2.93 | K 3.96 | F 3.3 | T 3.79 | V 3.31 | Y 3.29
S21: C 3.69 | K 4.17 | I 3.04 | P 2.86 | L 2.48 | R 2.65 | M 2.24 | A 3.31 | H 3.44 | Q 2.75 | D 4.25 | N 3.56 | T 3.56 | G 3.75 | F 2.15 | Y 3.22
S22: R 3.02 | D 4.06 | I 2.77 | V 3.58 | C 3.94 | F 2.77 | L 2.67 | K 2.57 | W 1.94 | G 3.74 | A 2.93 | H 3.56 | E 3.62 | N 3.3 | P 3.5 | M 2.28 | Y 3.01 | T 3.05
F18: A 5.36 | L 2.86 | C 4.15 | R 3.33 | W 3.5

— the supplement of paper PMC10567573
